Laboratory results: article PMC2756588

T1: Abp1, P15891
T1 sequence (P15891 535-592, looked up): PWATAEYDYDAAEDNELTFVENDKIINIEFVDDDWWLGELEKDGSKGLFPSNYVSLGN

T2: Bbc1, P47068
T2 sequence (P47068 1-78, looked up): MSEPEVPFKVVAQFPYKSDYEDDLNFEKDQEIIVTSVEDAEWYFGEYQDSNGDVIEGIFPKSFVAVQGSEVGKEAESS

T3: Boi1, P38041
T3 sequence (P38041 1-86, looked up): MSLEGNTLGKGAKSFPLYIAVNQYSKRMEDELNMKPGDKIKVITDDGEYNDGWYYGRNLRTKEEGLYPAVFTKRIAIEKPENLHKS

T4: Boi2, P39969
T4 sequence (P39969 32-116, looked up): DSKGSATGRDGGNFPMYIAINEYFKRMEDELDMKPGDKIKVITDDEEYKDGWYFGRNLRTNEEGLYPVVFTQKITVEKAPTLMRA

T5: Bud14, P27637
T5 sequence (P27637 247-328, looked up): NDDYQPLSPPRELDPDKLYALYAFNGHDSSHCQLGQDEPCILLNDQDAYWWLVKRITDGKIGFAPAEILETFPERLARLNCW

T6: Bzz1-1, P38822
T6 sequence (P38822 478-572, looked up): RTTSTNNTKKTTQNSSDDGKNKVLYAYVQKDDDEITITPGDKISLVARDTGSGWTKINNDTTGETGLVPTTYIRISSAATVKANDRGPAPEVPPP

T7: Bzz1-2, P38822
T7 sequence (P38822 568-633, looked up): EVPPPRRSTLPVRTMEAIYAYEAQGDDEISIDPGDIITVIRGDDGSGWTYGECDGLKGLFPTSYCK

T8: Cdc25, P04821
T8 sequence (P04821 50-136, looked up): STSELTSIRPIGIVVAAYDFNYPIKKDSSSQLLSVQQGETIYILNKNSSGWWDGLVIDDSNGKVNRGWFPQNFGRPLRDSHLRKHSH

T9: Cyk3, Q07533
T9 sequence (Q07533 1-83, looked up): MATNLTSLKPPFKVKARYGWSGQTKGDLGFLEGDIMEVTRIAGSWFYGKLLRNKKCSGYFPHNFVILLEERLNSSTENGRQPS

T10: Fus1, P11710
T10 sequence (P11710 432-512, looked up): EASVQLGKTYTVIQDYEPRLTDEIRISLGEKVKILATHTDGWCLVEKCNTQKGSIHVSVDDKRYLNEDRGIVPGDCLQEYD

T11: Hof1, Q05080
T11 sequence (Q05080 590-669, looked up): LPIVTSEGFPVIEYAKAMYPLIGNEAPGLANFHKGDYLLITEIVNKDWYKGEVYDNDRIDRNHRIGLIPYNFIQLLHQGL

T12: Hse1, P38753
T12 sequence (P38753 208-285, looked up): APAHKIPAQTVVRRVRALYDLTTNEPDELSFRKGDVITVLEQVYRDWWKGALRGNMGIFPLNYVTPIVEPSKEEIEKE

T13: Lsb1, P53281
T13 sequence (P53281 45-122, looked up): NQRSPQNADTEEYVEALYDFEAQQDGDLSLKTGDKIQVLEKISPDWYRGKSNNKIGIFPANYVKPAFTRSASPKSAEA

T14: Lsb3, P43603
T14 sequence (P43603 385-451, looked up): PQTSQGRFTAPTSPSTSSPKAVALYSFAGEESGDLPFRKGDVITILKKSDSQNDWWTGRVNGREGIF

T15: Lsb4, P32793
T15 sequence (P32793 402-468, looked up): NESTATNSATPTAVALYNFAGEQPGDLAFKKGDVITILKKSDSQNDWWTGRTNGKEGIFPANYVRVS

T16: Myo5, Q04439
T16 sequence (Q04439 1072-1160, looked up): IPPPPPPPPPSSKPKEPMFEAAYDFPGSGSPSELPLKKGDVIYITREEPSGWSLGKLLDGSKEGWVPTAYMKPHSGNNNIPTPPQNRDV

T17: Nbp2, Q12163
T17 sequence (Q12163 103-180, looked up): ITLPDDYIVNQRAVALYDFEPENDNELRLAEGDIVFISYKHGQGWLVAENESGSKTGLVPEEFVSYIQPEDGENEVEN

T18: Pex13, P80667
T18 sequence (P80667 295-386, looked up): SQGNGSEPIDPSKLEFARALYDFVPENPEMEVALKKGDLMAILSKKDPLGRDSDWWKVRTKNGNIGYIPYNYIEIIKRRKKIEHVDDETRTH

T19: Pin3, Q06449
T19 sequence (Q06449 53-122, looked up): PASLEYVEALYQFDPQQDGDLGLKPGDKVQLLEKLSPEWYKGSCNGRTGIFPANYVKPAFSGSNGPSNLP

T20: Sla1-2, P32790
T20 sequence (P32790 60-140, looked up): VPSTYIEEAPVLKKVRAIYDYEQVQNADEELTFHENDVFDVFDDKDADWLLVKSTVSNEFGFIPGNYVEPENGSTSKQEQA

T21: Sla1-3, P32790
T21 sequence (P32790 344-424, looked up): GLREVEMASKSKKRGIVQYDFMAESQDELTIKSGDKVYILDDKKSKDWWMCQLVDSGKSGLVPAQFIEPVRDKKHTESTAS


Columns and labels:
Assay in all cases: SPOT array
[1] = molecular target: T1, Abp1, P15891; details: median of control spots 935
[2] = molecular target: T2, Bbc1, P47068; details: median of control spots 796
[3] = molecular target: Bem1-1, P29366; details: median of control spots 4282
Sequence of Bem1-1, P29366 (P29366 55-141): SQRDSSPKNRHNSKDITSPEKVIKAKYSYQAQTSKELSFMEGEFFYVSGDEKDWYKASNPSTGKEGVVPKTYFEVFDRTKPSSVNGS

[4] = molecular target: Bem1-2, P29366; details: median of control spots 4347
Sequence of Bem1-2, P29366 (P29366 139-227): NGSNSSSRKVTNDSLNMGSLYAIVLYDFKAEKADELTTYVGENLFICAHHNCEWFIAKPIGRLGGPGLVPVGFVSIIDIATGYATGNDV

[5] = molecular target: T3, Boi1, P38041; details: median of control spots 1162
[6] = molecular target: T4, Boi2, P39969; details: median of control spots 1161
[7] = molecular target: T5, Bud14, P27637; details: median of control spots 956
[8] = molecular target: T6, Bzz1-1, P38822; details: median of control spots 4446
[9] = molecular target: T7, Bzz1-2, P38822; details: median of control spots 4538
[10] = molecular target: T8, Cdc25, P04821; details: median of control spots 969
[11] = molecular target: T9, Cyk3, Q07533; details: median of control spots 1451
[12] = molecular target: T10, Fus1, P11710; details: median of control spots 1200
[13] = molecular target: GST; details: median of control spots 978
[14] = molecular target: T11, Hof1, Q05080; details: median of control spots 4086
[15] = molecular target: T12, Hse1, P38753; details: median of control spots 1727
[16] = molecular target: T13, Lsb1, P53281; details: median of control spots 388
[17] = molecular target: T14, Lsb3, P43603; details: median of control spots 406
[18] = molecular target: T15, Lsb4, P32793; details: median of control spots 397
[19] = molecular target: Myo3, P36006; details: median of control spots 468
[20] = molecular target: T16, Myo5, Q04439; details: median of control spots 471
[21] = molecular target: T17, Nbp2, Q12163; details: median of control spots 357
[22] = molecular target: T18, Pex13, P80667; details: median of control spots 1341
[23] = molecular target: T19, Pin3, Q06449; details: median of control spots 2171
[24] = molecular target: Rvs167, P39743; details: median of control spots 2707
Sequence of Rvs167, P39743 (P39743 419-482): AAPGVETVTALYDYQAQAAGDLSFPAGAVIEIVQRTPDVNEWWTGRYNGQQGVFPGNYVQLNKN

[25] = molecular target: Sho1, P40073; details: median of control spots 1148
Sequence of Sho1, P40073 (P40073 287-367): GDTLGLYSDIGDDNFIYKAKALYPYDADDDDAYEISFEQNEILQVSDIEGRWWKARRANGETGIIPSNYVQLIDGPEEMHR

[26] = molecular target: T20, Sla1-2, P32790; details: median of control spots 712
[27] = molecular target: T21, Sla1-3, P32790; details: median of control spots 5475

SPOT intensity [1]	SPOT intensity [2]	SPOT intensity [3]	SPOT intensity [4]	SPOT intensity [5]	SPOT intensity [6]	SPOT intensity [7]	SPOT intensity [8]	SPOT intensity [9]	SPOT intensity [10]	SPOT intensity [11]	SPOT intensity [12]	SPOT intensity [13]	SPOT intensity [14]	SPOT intensity [15]	SPOT intensity [16]	SPOT intensity [17]	SPOT intensity [18]	SPOT intensity [19]	SPOT intensity [20]	also measured	Binder
202	31	0	81	2	1	12	9	49	53	1	6	1	24	440	0	4	20	42	3	SPOT intensity [21]: 56; SPOT intensity [22]: 11; SPOT intensity [23]: 6; SPOT intensity [24]: 0; SPOT intensity [25]: 121; SPOT intensity [26]: 1; SPOT intensity [27]: 213	NLPKRKPPKLQGPFS
114	45	0	4210	0	0	0	16	186	0	0	0	0	0	78	63	5	3	37	12	SPOT intensity [21]: 314; SPOT intensity [22]: 143; SPOT intensity [23]: 19; SPOT intensity [24]: 0; SPOT intensity [25]: 8; SPOT intensity [26]: 0; SPOT intensity [27]: 2040	FYHRPAPKPPVTKKV
326	98	0	567	0	0	5	2	350	9	0	0	1	0	14	140	54	88	81	64	SPOT intensity [21]: 513; SPOT intensity [22]: 124; SPOT intensity [23]: 69; SPOT intensity [24]: 67; SPOT intensity [25]: 55; SPOT intensity [26]: 8; SPOT intensity [27]: 88	KMSRSPPRPPSLKII
108	43	0	20	7	3	8	0	0	77	2	39	0	21	17	4	6	7	18	2	SPOT intensity [21]: 52; SPOT intensity [22]: 38; SPOT intensity [23]: 30; SPOT intensity [24]: 0; SPOT intensity [25]: 71; SPOT intensity [26]: 0; SPOT intensity [27]: 24	DRIRMFIRFPKFLLE
